Values of other authors, collected in patent US20240156960A1 (priority 2020, published 2024).
Residue numbers refer to the chain shown, from its start.

B1: C126 (antibody, listed as Homo sapiens, V domains shown)
VH: QVQLQESGPGLVKPSETLSLSCAVSGGSIGSYFWSWIRQPPGKGLEWIGYLHYSGSTNYNPSLKSRVTISVDTSKNQFSLKLSSVTAADTAVYYCARLQWLRGAFDIWGQGTMVTVSS
VL: NFMLTQPHSVSESPGKTVTISCTGSSGSIASNYVQWYQQRPGSAPTTVINEDNQRPSGVPDRFSGSIDSSSNSASLTISGLKTEDEADYYCQSYDSSNLVFGGGTKLTVL
B2: mAb-94 (antibody, listed as Homo sapiens, V domains shown)
VH: QVQLVQSGAEVKKPGSSVKVSCKASGGMFTDYAISWVRQAPGQRLEWMGGIMPGLGSPAYAQIFRDRATISADVSTSTAYLELTSLKPEDTAVYYCARDPSILNTGNHHWYDLDIWGQGTTVTVSS
VL: DIQLTQSPLSLPVGLGQSASISCRSSQRVVHTDGNTYLNWYHQRPGQSPRRLIYKVSNRDSGVPDRFSGSGSGTDFTLRISRVEAEDVGVYYCMQSTDWPRTFGQGTKLEIK
B3: C114 (antibody, listed as Homo sapiens, V domains shown)
VH: QVQLVESGGGLIQPGGSLKLSCVVSGFTVSKNYISWVRQAPGKGLEWVSVIFAGGSTFYADSVKGRFAISRDNSNNTLFLQMNSLRVEDTAIYYCARGDGELFFDQWGQGTLVTVSS
VL: QSVLTQPPSVSGAPGQRVTISCTGTSSNIGAGYDVHWYQQLPGRAPKVLISGNNIRPSEVPDRFSGSRSGTSASLAITSLQPEDEAQYYCQSYDSSLYAVFGGGTKLTVL
B4: C118 (antibody, listed as Homo sapiens, V domains shown)
VH: QVQLVESGGGVVQPGRSLRLSCAASGFTFSNYAMHWVRQAPGKGLEWVAVISYDGSNKYYADSVKGRFTISRDNSKNTLYLQMNSLRAEDTAIYYCASGYTGYDYFVRGDYYGLDVWGQGTTVTVSS
VL: QPVLTQSPSASASLGASVKLTCTLSSGHSSYAIAWHQQQPEKGPRYLMKLNTDGSHSKGDGIPDRFSGSSSGAERYLTISSLQSEDEADYYCQTWGTGILVFGGGTKLTVL
B5: mAb-88 (antibody, listed as Homo sapiens, V domains shown)
VH: QVQLVESGAEVKKPGSSVKISCKISGDTFSTNAISWLRQAPGREPEWMGGIVPLVGPASYAQRPQGRLTITADEFTNTAYLELNSLRSEDTATYYCARDSDPYTATRRHNHYWYAMDVWGQGTTVTVSS
VL: DIRLTQTPLSLPVTLGQPASISCRSSQIAMHSDGNTYLSWFHQRPGQPPRRLIYKISNRDSGVPDRFSGSGSGTDFTLKISRVEAEDIGTFYCMQGTDWPRTFGQGTKVDIK
B6: C022 (antibody, listed as Homo sapiens, V domains shown)
VH: QVQLQESGPGLVKPSETLSVTCTVSGGSISSSRYYWGWIRQPPGKGLEWIGSIYYSGSTYYNPSLKSRVTISVDTSKNQFSLKLSSVTAADTAVYYCARHAAAYYDRSGYYFIEYFQHWGQGTLVTVSS
VL: DIQMTQSPSTLSASVGDSVTITCRASQSISSWLAWYQQKPGKAPKLLIYKASSLESGVPSRFSGSGSGTEFTLTISSLQPDDFATYYCQQYNNYRYTFGQGTKLEIK
B7: C113 (antibody, listed as Homo sapiens, V domains shown)
VH: QVQLVESGGGVVQPGRSLRLSCAASGFTFSNFGMHWVRQAPGKGLEWVAVIWYDGSNKYYADSVKGRFTISRDNSKNTLYLQMNSLRAEDTAVYYCARGVNPDDILTGVDAFDIWGQGTMVTVSS
VL: B6 VL with S18R, I29M, K42N, Y91H, N93S, Y94S, R95P, Y96L, Q100G, L104V
B8: mBG67 (antibody, listed as Mus musculus, V domains shown)
VH: EVQLVESGGGLVQPGGSLKLSCAASGFTFSNYGMSWVRQTPDKRLELVATINRNGGSTYYLDSVKVRFTISRDNAKSTLFLQLSSLKSDDTAMYYCARIYDFDEDYFDVWGAGTTVTVSS
VL: QIVLTQSPAIMSASLGERVTMTCTASSSVSSSYLHWYQQKPGSSPKLWIYSTSNLASGVPARFSGSGSGTSYSLTISSMEAEDAATYYCLQYHRSPWTFGGGTKLEIK
B9: mBG21 (antibody, listed as Mus musculus, V domains shown)
VH: QIQLVQSGPELKKPGETVKISCKASGYTFTDYSMHWVKQAPGKGSKWMGWINTETGEPTYADDFKGRFAFSLETSASTAYLQINNLKNEDTATYFCALRRWGQGTLVTVSS
VL: IVMTQTPKFLLVSAGDRVTITCKASQSVSNDVAWFQQKPGQSPKKLLIYFASNRYTGVPDRFTGSGYGTDFTFTITTVQAEDLAVYFCQQDYSSPWTFGGGTKLEIK
B10: mBG57 (antibody, listed as Mus musculus, V domains shown)
VH: B9 VH with S111A
VL: DIVMTQAAPSEPVTPGESVSISCGSSKSLLHSNDNTYLYWFLQRPGQSPQLLIYRMSNLASGVPDRFTGSGSGTAFTLRISRVEAEDVGVYYCMQHLENPLGVRWRHQAGNQT
B11: mBG22 (antibody, listed as Mus musculus, V domains shown)
VH: B9 VH with S111A
VL: IVMTQTPKFLLVSAGDRVTITCKASQSVSNDVAWFQQKPGQSPKLLIYFASNRYTGVPDRFTGSGYGTDFTFTITTVQAEDLAVYFCQQDYSSPWTFGGGTKLEIK
B12: C116 (antibody, listed as Homo sapiens, V domains shown)
VH: QVQLVESGGGVVQPGRSLRLSCAASGFTYSTYAMHWVRQAPGKGLEWVAFISYDGSNKYYADSVKGRFTISRDNSKNTLYLQMNSLRAEDTAVYYCARDFYHNWFDPWGQGTLVTVSS
VL: NFMLTQPHSVSESPGKTVTISCTGSSGSIASNYVQWYQQRPGSAPTTVIYEDNQRPSGVPDRFSGSIDRSSNSASLTISGLKTEDEADYYCQSYDSGNHWVVFGGGTRLTVL
B13: mAb-87 (antibody, listed as Homo sapiens, V domains shown)
VH: QVQLQESGPGLVKPSETLSLTCTVSGGSMNHYYWSWIRQPPGKGLEGIGYTYYSGSTNYNPSLKSRVTISVDASKNQFSLRLSSVTAADTAVYYCARGSQIDLRGGLGATFFDYWGQGTLVTVSS
VL: QSVLTQPASVSGSPGQSITISCTGTSSDVGAYNYVSWYQQHPGKAPKLTVYDVRNRPSGVSNRFSGSKSGNTASLTISGLQAEDEAHYYCSSYTSTNTVFGGGTKLTVL

Key:
SARS-CoV1 [1] = test system: SARS-CoV1
SARS-CoV2 S; RBD = SARS-CoV2 S; RBD (Severe acute respiratory syndrome coronavirus 2, UniProt P0DTC2); conditions: epitope S
SARS-CoV1 S = SARS-CoV1 S (Severe acute respiratory syndrome coronavirus, UniProt P59594)
OC43 S = OC43 S (Human coronavirus OC43, UniProt P36334); conditions: Protein + Epitope S, Unk
SARS-CoV2 S = SARS-CoV2 S (Severe acute respiratory syndrome coronavirus 2, UniProt P0DTC2); conditions: Protein + Epitope S, Unk
NL63 S = NL63 S (Human coronavirus NL63, UniProt Q6Q1S2); conditions: Protein + Epitope S, Unk
SARS-CoV1 [2] = test system: SARS-CoV1; remark: listed apart in the source
[3] = test system: SARS-CoV2, SARS-CoV1, NL63, 229E, HKU1, OC43

OC43 S, sequence (P36334 14-1353): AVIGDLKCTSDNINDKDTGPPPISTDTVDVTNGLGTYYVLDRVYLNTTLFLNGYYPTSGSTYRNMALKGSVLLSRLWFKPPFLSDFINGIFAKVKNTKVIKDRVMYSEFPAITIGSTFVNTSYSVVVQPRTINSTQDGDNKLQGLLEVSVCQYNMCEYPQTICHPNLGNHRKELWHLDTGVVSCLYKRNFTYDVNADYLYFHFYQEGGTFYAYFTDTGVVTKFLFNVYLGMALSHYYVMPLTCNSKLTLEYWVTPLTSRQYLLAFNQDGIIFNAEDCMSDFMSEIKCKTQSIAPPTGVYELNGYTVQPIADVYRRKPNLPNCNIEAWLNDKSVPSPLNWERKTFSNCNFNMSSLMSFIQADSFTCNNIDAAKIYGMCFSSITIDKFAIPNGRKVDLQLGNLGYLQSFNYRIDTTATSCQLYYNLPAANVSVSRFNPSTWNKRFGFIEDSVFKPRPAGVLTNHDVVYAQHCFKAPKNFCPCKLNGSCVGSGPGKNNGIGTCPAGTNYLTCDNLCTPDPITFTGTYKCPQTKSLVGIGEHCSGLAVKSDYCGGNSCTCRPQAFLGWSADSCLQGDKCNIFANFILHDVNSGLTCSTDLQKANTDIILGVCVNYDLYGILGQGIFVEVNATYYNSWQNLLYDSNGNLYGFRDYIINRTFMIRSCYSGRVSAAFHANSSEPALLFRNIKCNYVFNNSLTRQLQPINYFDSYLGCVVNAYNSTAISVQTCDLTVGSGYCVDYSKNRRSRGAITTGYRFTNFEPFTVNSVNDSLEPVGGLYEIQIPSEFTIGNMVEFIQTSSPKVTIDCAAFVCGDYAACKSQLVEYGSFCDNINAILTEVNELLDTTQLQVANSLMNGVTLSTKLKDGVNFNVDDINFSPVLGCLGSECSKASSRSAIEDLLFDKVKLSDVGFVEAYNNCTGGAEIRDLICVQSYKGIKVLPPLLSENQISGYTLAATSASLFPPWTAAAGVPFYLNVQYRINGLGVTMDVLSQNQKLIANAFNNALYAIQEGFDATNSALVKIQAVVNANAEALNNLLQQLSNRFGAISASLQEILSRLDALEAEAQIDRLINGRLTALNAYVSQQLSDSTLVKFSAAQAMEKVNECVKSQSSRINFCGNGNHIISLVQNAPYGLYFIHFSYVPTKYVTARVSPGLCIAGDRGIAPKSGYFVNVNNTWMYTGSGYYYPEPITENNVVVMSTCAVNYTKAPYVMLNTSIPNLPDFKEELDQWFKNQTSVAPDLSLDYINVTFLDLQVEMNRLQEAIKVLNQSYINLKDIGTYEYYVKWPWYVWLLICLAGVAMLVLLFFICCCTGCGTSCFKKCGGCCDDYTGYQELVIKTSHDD
NL63 S, sequence (Q6Q1S2 19-1356): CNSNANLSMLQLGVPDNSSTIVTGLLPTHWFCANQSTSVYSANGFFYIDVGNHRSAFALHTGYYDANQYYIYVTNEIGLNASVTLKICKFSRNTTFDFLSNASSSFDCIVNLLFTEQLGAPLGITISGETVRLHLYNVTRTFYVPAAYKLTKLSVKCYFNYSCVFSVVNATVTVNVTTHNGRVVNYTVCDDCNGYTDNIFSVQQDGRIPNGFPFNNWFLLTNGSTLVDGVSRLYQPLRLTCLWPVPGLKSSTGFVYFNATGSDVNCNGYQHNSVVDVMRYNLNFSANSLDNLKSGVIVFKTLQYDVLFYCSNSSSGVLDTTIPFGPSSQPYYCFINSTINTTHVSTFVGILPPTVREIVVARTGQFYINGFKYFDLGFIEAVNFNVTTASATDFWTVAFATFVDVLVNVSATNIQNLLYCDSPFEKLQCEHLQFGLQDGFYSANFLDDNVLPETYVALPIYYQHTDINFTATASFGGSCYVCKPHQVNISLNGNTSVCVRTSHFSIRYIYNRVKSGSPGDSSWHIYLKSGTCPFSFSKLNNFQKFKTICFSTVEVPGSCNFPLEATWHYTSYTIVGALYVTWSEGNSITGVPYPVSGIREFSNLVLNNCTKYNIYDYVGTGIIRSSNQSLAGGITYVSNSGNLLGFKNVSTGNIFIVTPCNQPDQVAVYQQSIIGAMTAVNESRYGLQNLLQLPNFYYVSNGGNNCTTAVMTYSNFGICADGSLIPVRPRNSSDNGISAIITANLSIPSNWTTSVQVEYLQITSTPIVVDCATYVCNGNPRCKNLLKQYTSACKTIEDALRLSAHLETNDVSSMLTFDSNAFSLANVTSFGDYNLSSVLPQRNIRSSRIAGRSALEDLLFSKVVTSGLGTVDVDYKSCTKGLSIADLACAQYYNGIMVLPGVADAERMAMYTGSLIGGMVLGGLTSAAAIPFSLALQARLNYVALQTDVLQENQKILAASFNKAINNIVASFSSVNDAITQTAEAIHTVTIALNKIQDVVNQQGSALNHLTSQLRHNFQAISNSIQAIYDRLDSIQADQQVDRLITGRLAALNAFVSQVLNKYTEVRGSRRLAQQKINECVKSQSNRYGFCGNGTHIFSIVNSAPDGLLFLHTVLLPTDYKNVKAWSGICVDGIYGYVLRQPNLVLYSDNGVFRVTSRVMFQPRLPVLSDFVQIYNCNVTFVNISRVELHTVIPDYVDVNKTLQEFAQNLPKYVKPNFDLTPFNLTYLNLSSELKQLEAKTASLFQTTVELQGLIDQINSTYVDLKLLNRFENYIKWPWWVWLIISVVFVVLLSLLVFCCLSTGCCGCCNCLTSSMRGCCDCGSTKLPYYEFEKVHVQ

Molecule	Not Neutralising Vs (SARS-CoV1 [1])	Binds to (SARS-CoV2 S; RBD)	Binds to [3]	further results
B1	SARS-CoV1,	SARS-CoV2	–	–
B2	–	–	–	Doesn't Bind to (SARS-CoV1 S): CoV1; Doesn't Bind to (OC43 S): OC43,; Binds to (SARS-CoV2 S): SARS-CoV2; Doesn't Bind to (NL63 S): NL63,
B3	SARS-CoV1,	SARS-CoV2	–	–
B4	–	SARS-CoV2	–	Binds to (SARS-CoV1 [2]): SARS-CoV1,
B5	–	–	–	Doesn't Bind to (SARS-CoV1 S): CoV1; Doesn't Bind to (OC43 S): OC43,; Binds to (SARS-CoV2 S): SARS-CoV2; Doesn't Bind to (NL63 S): NL63,
B6	–	SARS-CoV2	–	Binds to (SARS-CoV1 [2]): SARS-CoV1,
B7	SARS-CoV1,	SARS-CoV2	–	–
B8	–	–	NL63	–
B9	–	–	NL63	–
B10	–	–	NL63	–
B11	–	–	NL63	–
B12	SARS-CoV1,	SARS-CoV2	–	–
B13	–	–	–	Doesn't Bind to (SARS-CoV1 S): CoV1; Doesn't Bind to (OC43 S): OC43,; Binds to (SARS-CoV2 S): SARS-CoV2; Doesn't Bind to (NL63 S): NL63,
